Results on 6 molecules are retold here after patent US20200385439A1.

Ends that are not written are not given here. Bounds are passed on as bounds.

Common to all, as to assay: cell-based or functional assay
Experiment [1] addresses human glucagon receptor (human) (UniProt P47871).
The target in experiment [2] is mouse glucagon receptor (mouse) (UniProt Q61606).
Experiment [3] addresses cynomolgus monkey glucagon receptor (cynomolgus monkey).
Experiment [4] concerns the target mouse GLP1 receptor (mouse) (UniProt O35659).
Experiment [5] deals with rat glucagon receptor (rat) (UniProt P30082).
Sequence of rat glucagon receptor (rat) (P30082 27-485): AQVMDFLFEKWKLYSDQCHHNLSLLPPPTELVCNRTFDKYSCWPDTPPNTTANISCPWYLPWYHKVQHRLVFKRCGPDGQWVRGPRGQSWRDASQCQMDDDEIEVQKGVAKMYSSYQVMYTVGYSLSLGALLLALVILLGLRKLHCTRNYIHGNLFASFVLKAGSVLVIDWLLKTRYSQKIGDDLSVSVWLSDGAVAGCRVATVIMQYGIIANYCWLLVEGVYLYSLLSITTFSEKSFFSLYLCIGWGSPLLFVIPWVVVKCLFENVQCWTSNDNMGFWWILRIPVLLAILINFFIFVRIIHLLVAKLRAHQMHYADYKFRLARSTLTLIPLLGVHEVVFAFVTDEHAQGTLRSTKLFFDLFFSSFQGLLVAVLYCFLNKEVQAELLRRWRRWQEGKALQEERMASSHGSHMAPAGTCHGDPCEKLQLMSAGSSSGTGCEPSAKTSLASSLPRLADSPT
In experiment [6] the target is mouse Y2 receptor (mouse) (UniProt P97295).
Sequence of mouse Y2 receptor (mouse) (P97295 whole entry): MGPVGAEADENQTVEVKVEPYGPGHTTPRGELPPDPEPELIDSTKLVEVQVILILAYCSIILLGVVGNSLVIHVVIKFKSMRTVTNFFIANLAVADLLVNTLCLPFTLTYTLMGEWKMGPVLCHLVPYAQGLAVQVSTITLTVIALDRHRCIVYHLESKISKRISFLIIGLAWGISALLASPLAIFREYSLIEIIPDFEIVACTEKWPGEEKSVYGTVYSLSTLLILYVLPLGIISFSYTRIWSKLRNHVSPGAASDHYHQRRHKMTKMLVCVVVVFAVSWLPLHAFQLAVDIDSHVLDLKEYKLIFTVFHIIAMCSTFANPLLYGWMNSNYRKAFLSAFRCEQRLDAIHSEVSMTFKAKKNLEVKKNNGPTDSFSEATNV
Experiment [7] has as its target human Y1 receptor (human) (UniProt P25929).
Experiment [8] concerns the target rhesus monkey Y2 receptor (rhesus monkey) (UniProt Q9GK74).
A further experiment deals with CRHR1.
A further experiment deals with CRHR2.
The target of experiment [9] is cynomolgus monkey GLP1 receptor (cynomolgus monkey) (UniProt F8V479).
The target in the next experiment is T1, CALCR.
T1 sequence (P30988 1-474, species assumed, looked up): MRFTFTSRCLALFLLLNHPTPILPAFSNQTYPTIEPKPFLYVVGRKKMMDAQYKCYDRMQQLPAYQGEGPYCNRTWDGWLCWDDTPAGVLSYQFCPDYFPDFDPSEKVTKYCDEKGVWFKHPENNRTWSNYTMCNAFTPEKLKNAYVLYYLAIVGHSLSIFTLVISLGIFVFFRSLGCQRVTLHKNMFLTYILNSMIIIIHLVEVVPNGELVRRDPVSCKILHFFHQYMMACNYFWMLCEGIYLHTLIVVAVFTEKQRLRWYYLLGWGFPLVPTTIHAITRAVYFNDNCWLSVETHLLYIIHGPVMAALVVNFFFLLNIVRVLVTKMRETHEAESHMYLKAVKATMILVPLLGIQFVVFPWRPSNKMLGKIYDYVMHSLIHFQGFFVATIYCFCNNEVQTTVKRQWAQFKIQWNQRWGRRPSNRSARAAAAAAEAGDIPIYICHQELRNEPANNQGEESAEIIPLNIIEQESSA

Sequence of mouse glucagon receptor (mouse) (Q61606 27-485): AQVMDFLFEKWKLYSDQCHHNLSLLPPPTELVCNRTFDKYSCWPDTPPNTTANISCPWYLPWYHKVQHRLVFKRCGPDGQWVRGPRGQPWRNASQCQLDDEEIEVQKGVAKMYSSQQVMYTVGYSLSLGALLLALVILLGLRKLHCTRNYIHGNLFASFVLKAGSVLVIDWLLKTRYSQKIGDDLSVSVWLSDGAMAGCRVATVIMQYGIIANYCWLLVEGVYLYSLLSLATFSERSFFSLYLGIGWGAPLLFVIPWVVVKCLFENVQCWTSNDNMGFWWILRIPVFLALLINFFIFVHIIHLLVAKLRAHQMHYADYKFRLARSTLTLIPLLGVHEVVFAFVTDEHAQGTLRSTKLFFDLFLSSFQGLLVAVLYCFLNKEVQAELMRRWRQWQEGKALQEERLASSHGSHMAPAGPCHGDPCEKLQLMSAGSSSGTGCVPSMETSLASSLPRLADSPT
Sequence of mouse GLP1 receptor (mouse) (O35659 22-463): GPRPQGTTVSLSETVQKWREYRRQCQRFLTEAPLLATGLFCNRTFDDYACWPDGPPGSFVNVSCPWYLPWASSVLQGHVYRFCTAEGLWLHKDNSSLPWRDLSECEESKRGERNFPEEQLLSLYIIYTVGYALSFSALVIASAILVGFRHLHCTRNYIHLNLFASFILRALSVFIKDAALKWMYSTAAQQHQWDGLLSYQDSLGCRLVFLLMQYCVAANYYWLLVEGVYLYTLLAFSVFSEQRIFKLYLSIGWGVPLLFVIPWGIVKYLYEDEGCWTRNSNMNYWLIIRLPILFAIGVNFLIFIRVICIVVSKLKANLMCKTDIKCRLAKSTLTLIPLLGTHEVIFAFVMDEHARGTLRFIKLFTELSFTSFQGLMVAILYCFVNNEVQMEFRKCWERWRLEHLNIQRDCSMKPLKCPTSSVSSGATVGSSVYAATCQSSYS
Sequence of human glucagon receptor (human) (P47871 26-477): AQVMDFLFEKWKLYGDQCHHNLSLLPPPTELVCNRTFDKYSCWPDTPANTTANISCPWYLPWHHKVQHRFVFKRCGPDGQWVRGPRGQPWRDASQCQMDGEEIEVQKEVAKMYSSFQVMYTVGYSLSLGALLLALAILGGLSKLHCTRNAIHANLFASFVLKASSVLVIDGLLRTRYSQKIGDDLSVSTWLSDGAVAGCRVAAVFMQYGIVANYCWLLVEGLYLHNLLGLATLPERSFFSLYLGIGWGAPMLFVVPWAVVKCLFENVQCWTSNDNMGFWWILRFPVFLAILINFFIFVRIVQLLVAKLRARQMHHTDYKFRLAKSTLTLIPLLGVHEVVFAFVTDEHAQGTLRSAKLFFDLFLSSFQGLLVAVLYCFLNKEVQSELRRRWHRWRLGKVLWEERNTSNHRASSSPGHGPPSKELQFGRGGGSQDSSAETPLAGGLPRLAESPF
Sequence of human Y1 receptor (human) (P25929 whole entry): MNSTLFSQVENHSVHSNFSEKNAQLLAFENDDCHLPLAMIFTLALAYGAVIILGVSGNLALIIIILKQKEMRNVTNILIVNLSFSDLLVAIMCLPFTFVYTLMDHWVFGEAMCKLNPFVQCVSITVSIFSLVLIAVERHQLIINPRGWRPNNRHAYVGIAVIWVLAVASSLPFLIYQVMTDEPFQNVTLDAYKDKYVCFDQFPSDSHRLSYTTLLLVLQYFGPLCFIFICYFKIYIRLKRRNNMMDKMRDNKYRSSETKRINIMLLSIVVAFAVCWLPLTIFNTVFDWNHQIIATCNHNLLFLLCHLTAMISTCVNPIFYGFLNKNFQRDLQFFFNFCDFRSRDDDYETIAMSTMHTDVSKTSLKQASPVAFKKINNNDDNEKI
Sequence of rhesus monkey Y2 receptor (rhesus monkey) (Q9GK74 whole entry): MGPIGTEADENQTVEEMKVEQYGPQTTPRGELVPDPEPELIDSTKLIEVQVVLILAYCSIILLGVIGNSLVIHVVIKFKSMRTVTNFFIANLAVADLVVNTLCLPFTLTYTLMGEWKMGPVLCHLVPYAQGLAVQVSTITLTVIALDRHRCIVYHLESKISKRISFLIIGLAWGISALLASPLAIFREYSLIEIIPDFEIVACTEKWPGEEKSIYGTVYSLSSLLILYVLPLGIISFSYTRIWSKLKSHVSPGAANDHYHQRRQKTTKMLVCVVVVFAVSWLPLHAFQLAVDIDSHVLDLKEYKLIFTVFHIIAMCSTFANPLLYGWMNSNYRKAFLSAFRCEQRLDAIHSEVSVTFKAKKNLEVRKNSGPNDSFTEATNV

As to Dulaglutide (Fc fusion), the EC50, receptor cAMP assay is > 100 nM in [1]; > 100 nM in experiment [2]; > 100 nM in [3]; 0.035 nM in experiment [4]; > 100 nM in [5].

As to “PYY3-36 (from UniProt P10082 31-64) (peptide)”, the EC50, cAMP assay (LANCE) on receptor-expressing cells in experiment [6] was 0.03 nM; in [7], 66.4 nM; in experiment [8] it was 0.06 nM.

Regarding Sauvagine (peptide), the RC50, cAMP assay is 0.000308 µM in the experiment with CRHR1 and 0.0034 µM with CRHR2.

On to Sauvagine (peptide; unit assumed), for which the Max response, cAMP assay with CRHR1 stood at 106%; with CRHR2 it was 107%.

On to “Ser-8 GLP1 (from UniProt P01275 98-127) (peptide)”, for which the EC50, receptor cAMP assay was 0.08 nM in experiment [9]; > 100 nM in experiment [2]; > 100 nM in experiment [3]; 0.06 nM in experiment [4]; > 100 nM in experiment [5].

B1: Calcitonin (peptide, UniProt P01258 85-116, looked up, species assumed)
Calcitonin: CGNLSTCMLGTYTQDFNKFHTFPQTAIGVGAP
modifications: ends and bridges not checked; cysteine pairing not given here
Turning to B1, in the experiment with CALCR, the Max response, cAMP assay is 101% and the RC50, cAMP assay is 0.000776 µM.
